± gives the uncertainty stated by the source.
Assay: self-splicing fitness, log relative to wild type (ln ratio); higher = more splicing; Tetrahymena group I intron in knt gene, E. coli kanamycin selection, DiMSum; sequences stand for … in CUCUCU…GGAGGGAAAAGUUAUCAGGCAUGCACCUGGUAGCUAGUCUUUAAACCAAUAGAUUGCAUCGGUUUAAAAGGCAAGACCGUCAAAUUGCGGGAAAGGGGUCAACAGCCGUUCAGUACCAAGUCUCAGGGGAAACUUUGAGAUGGCCUUGCAAAGGGUAUGGUAAUAAGCUGACGGACAUGGUCCUAACCACGCAGCCAAGUCCUAAGUCAACAGAUCUUCUGUUGAUAUGGAUGCAGUUCACAGACUAAAUGUCGGUCGGGGAAGAUGUAUUCUUCUCAUAAGAUAUAGUCGGACCUCUCCUUAAUGGGAGCUAGCGGAUGAAGUGAUGCAACACUGGAGCCGCUGGGAACUAAUUUGUAUGCGAAAGUAUAUUGAUUAGUUUUGGAGUACUCGUGGUCG
In short: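 The eight P1ex-region nucleotides of an intron in the knt kanamycin-resistance gene on pET-22b(+) were all randomised and the library put into E. coli BL21(DE3). Six replicate transformations were grown overnight at 37°C or 30°C on LB agar with or without 25 μg/mL kanamycin, together with 100 μg/mL carbenicillin, 50 μM IPTG and 0.2% rhamnose. Colonies were pooled and amplicon-sequenced on an Illumina HiSeq 2500. Fitness from DiMSum is the error-weighted combination of wild-type-normalised replicate fold changes, kanamycin over none.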

GUGAAGCAAUAUUACGGAGU
self-splicing fitness (ln) (30 °C): -1.3 ± 0.072 | self-splicing fitness (ln) (37 °C): -0.63 ± 0.091

GUGAAGCAAUAUUACGGCGG
self-splicing fitness (ln) (30 °C): -1.24 ± 0.13 | self-splicing fitness (ln) (37 °C): -1.26 ± 0.14

GUGAAGCAAUAUUACGGUCU
self-splicing fitness (ln) (30 °C): 0.172 ± 0.098 | self-splicing fitness (ln) (37 °C): 0.824 ± 0.096

GUGAAGCAAUAUUACGGUUC
self-splicing fitness (ln) (30 °C): -2.13 ± 0.12 | self-splicing fitness (ln) (37 °C): -1.19 ± 0.14

GUGAAGCAAUAUUACGUACA
self-splicing fitness (ln) (30 °C): -0.778 ± 0.082 | self-splicing fitness (ln) (37 °C): 0.51 ± 0.12

GUGAAGCAAUAUUACGUACU
self-splicing fitness (ln) (30 °C): -1.14 ± 0.055 | self-splicing fitness (ln) (37 °C): -0.0726 ± 0.07

GUGAAGCAAUAUUACGUAGU
self-splicing fitness (ln) (30 °C): -2.19 ± 0.064 | self-splicing fitness (ln) (37 °C): -1.1 ± 0.08

GUGAAGCAAUAUUACGUGAG
self-splicing fitness (ln) (30 °C): -1.26 ± 0.076 | self-splicing fitness (ln) (37 °C): -0.555 ± 0.097

GUGAAGCAAUAUUACGUUUU
self-splicing fitness (ln) (30 °C): -4.1 ± 0.14 | self-splicing fitness (ln) (37 °C): -3.88 ± 0.22

GUGCAGCAAUAUUACGAAAA
self-splicing fitness (ln) (30 °C): -2.34 ± 0.19 | self-splicing fitness (ln) (37 °C): -2.49 ± 0.22

GUGCAGCAAUAUUACGAACG
self-splicing fitness (ln) (30 °C): -2.4 ± 0.2 | self-splicing fitness (ln) (37 °C): -0.213 ± 0.14

GUGCAGCAAUAUUACGACGA
self-splicing fitness (ln) (30 °C): -0.272 ± 0.15 | self-splicing fitness (ln) (37 °C): 0.701 ± 0.14

GUGCAGCAAUAUUACGAUGA
self-splicing fitness (ln) (30 °C): -0.903 ± 0.14 | self-splicing fitness (ln) (37 °C): -0.772 ± 0.14

GUGCAGCAAUAUUACGCAAA
self-splicing fitness (ln) (30 °C): -0.928 ± 0.1 | self-splicing fitness (ln) (37 °C): -0.119 ± 0.13

GUGCAGCAAUAUUACGCACU
self-splicing fitness (ln) (30 °C): -3.41 ± 0.28 | self-splicing fitness (ln) (37 °C): -2.3 ± 0.37

GUGCAGCAAUAUUACGCCAU
self-splicing fitness (ln) (30 °C): -2.23 ± 0.16 | self-splicing fitness (ln) (37 °C): -2.62 ± 0.23

GUGCAGCAAUAUUACGCCGA
self-splicing fitness (ln) (30 °C): -1.56 ± 0.13 | self-splicing fitness (ln) (37 °C): -0.832 ± 0.12

GUGCAGCAAUAUUACGCCUG
self-splicing fitness (ln) (30 °C): -2.95 ± 0.2 | self-splicing fitness (ln) (37 °C): -2.49 ± 0.26

GUGCAGCAAUAUUACGCGCA
self-splicing fitness (ln) (30 °C): -2.62 ± 0.27

GUGCAGCAAUAUUACGCGGA
self-splicing fitness (ln) (30 °C): -2.35 ± 0.27 | self-splicing fitness (ln) (37 °C): -1.08 ± 0.12

GUGCAGCAAUAUUACGCUAG
self-splicing fitness (ln) (30 °C): -3.71 ± 0.31 | self-splicing fitness (ln) (37 °C): -2.47 ± 0.32

— the supplement of paper PMC7877785
